In experiment [1] the target is human CTLA4 expressed on Jurkat T cells (CTLA4 effector cells) (human) (UniProt P16410). The experiment in a line: cell-based or functional assay.
Experiment [2] has as its target FcγRII (CD32) expressed on Raji cells. The experiment in a line: cell-based or functional assay.

The record followed here is patent publication US20250282870A1.

Several values for one entry are separate records, joined by “and”; a condition that tells them apart may be missing. Identical values can stand only once.

Sequence of L3D10 (BioLegend anti-CTLA4 antibody) (heavy): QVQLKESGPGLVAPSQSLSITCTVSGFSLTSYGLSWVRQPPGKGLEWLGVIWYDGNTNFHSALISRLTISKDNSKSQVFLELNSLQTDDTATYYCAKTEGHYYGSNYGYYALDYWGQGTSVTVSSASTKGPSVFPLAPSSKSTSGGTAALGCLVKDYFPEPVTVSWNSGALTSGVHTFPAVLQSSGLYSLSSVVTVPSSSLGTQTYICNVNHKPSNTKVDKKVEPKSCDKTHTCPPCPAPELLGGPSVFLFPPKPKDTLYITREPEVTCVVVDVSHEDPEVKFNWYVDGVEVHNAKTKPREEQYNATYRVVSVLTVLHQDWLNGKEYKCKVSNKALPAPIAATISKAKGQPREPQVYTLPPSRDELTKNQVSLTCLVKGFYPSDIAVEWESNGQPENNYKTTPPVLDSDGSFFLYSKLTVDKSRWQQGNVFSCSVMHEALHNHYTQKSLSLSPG
Sequence of L3D10 (BioLegend anti-CTLA4 antibody) (light): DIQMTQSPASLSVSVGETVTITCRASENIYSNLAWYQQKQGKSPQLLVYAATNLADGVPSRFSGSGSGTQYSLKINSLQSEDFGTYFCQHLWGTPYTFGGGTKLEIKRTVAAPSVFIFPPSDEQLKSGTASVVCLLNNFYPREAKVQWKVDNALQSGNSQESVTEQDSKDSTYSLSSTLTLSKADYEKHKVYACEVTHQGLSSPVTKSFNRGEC
Sequence of human CTLA4 expressed on Jurkat T cells (CTLA4 effector cells) (human) (P16410 36-223): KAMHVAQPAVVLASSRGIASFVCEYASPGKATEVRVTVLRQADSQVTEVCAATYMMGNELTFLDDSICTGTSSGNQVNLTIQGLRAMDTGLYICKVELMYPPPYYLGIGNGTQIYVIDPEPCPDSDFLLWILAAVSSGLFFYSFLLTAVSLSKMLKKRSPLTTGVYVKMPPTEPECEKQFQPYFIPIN

In the case of L3D10 (BioLegend anti-CTLA4 antibody), in experiment [1], the RLU ratio, Promega CTLA4 Blockade Bioassay (luciferase readout) was 10 and 15; the half max activity concentration, CTLA4 Blockade Bioassay (luciferase or IL-2 readout) was 50 nM. Moreover, the RLU ratio of the CTLA4 blockade assay with anti-CD32 antibody at 10 µg per ml in experiment [2] was 50%.
On to “ipilimumab (Selleckchem, Cat. No. A2001) (antibody)”, for which, in experiment [2], the RLU ratio of the CTLA4 blockade assay with anti-CD32 antibody at 10 µg per ml came out at 50% and the activity in the CTLA4 blockade assay with anti-CD32 antibody worked out at 50%.
